The data set has as its target CD22 (recombinant, histidine-tagged; Thermo Fisher A42609) (human, UniProt P20273 20-687). Description: His-bead pull-down with qRT-PCR. In general terms: Quantitative PCR measures a nucleic acid by following its amplification.

Sequence of CD22 (recombinant, histidine-tagged; Thermo Fisher A42609) (P20273 20-687, one chain of several): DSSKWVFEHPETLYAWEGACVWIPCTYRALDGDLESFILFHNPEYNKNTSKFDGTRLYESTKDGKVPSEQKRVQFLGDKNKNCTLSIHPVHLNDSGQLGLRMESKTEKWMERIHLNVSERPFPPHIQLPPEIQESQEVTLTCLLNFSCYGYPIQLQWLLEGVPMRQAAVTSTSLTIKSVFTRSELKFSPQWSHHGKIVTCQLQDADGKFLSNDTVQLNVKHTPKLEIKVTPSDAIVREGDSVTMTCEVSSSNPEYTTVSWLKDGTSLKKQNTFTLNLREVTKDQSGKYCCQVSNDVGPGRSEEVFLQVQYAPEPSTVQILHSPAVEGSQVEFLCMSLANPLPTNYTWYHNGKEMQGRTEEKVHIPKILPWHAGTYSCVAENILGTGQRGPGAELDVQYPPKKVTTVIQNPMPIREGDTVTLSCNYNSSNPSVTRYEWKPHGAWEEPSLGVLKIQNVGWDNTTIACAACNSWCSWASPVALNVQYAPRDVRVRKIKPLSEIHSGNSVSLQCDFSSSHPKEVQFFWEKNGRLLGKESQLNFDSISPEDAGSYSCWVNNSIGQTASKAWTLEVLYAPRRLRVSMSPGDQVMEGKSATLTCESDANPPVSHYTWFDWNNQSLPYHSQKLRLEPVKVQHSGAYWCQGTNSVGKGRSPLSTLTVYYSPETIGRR

B1: B-ALL1 (structured_RNA)
RNA: GGGAGGACGAUGCGGGCCAUUCGUCUUUUCGUCCCCAGACGACUCGCCCGA
modifications: 2'-fluoro pyrimidines (2'F-C, 2'F-U), unmodified purines
Turning to B1, the binding result is on record as “binds”.

The record behind these values is paper PMC10469072.
